Article PMC8163065, “Involvement of the R2R3-MYB transcription factor MYB21 and its homologs in regulating flavonol accumulation in Arabidopsis stamen”

T1: GST-MYB21 (Arabidopsis thaliana, UniProt Q9LK95 1-226)
T1 sequence: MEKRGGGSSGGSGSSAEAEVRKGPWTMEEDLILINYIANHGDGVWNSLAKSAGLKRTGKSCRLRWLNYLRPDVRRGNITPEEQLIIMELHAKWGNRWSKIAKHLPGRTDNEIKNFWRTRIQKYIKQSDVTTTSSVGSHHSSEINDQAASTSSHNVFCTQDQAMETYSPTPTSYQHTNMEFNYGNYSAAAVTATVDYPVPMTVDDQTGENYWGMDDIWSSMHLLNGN


Biological target: T1, GST-MYB21
Assay: EMSA; LightShift Chemiluminescent EMSA kit (Thermo), per manufacturer; buffer, salt, pH and temperature not stated
Conditions: protein: recombinant; tags: N-terminal GST (pGEX-4T-1); label: biotin (via primer S18, 5' tail); blunt

Row | Binder | binding result
1 | GARE1 FLS1 promoter probe (dsDNA) DNA 1: AGCCAGTGGCGATAAGCTCTCACCTTTTTTTTGTTATTTTATATCTTAAG DNA 2: CTTAAGATATAAAATAACAAAAAAAAGGTGAGAGCTTATCGCCACTGGCT | binds
2 | GARE2 FLS1 promoter probe (dsDNA) DNA 1: AGCCAGTGGCGATAAGCTGGGCCTTGTCTTGTTATATGGGCCTTGAATC DNA 2: GATTCAAGGCCCATATAACAAGACAAGGCCCAGCTTATCGCCACTGGCT | binds
